Experimental data from article PMC3137230 (ACS Chemical Biology, 2011).

Molecular target: the molecule itself
Experiment: crystal structure

B1: MmOmeRS, C-terminal catalytic domain (residues 185-454) of the evolved Methanosarcina mazei pyrrolysyl-tRNA synthetase (enzyme, UniProt Q8PWY1 185-454, looked up)
chain: ASAPALTKSQTDRLEVLLNPKDEISLNSGKPFRELESELLSRRKKDLQQIYAEERENYLGKLEREITRFFVDRGFLEIKSPILIPLEYIERMGIDNDTELSKQIFRVDKNFCLRPMLTPNLYNYLRKLDRALPDPIKIFEIGPCYRKESDGKEHLEEFTMLVFWQMGSGCTRENLESIITDFLNHLGIDFKIVGDSCMVFGDTLDVMHGDLELSSALVGPIPLDREWGIDKPWIGAGFGLERLLKVKHDFKNIKRAARSESYYNGISTNL
- binding result: binds
